Sequences and labels used below:
B2: GST-AS2 (… LEAVES 2) (natural protein)
chain: MASSSTNSPCAACKFLRRKCQPECVFAPYFPPDQPQKFANVHKVFGASNVTKLLNELHPSQREDAVNSLAYEADMRLRDPVYGCVGVISLLQHQLRQLQIDLSCAKSELSKYQSLGILAATHQSLGINLLAGAADGTATAVRDHYHHHQFFPREQMFGGLDVPAGNNYDGGILAIGQITQFQQPRAAAGDDGRRTVDPS
notes: full-length cDNA

The target in the assay “GST-AS2 (… LEAVES 2)” is B2. The assay can be described thus: pull-down; 2 ug of GST/MBP/His/His-SUMO fusion proteins; binding buffer 50 mM Tris-HCl pH 7.5, 100 mM NaCl, 0.25% Triton X-100, 35 mM beta-mercaptoethanol, 2 h at 4 C, then glutathione sepharose 4B overnight; 6 washes; Western blot with anti-His, anti-GST or anti-MBP. The settings on record: both partners purified.

For another assay, the target named is T1, DCP2, recombinant (Arabidopsis thaliana, UniProt Q8GW31 1-373).
T1 construct: mRNA decapping enzyme DCP2, Arabidopsis; full-length cDNA
T1 sequence: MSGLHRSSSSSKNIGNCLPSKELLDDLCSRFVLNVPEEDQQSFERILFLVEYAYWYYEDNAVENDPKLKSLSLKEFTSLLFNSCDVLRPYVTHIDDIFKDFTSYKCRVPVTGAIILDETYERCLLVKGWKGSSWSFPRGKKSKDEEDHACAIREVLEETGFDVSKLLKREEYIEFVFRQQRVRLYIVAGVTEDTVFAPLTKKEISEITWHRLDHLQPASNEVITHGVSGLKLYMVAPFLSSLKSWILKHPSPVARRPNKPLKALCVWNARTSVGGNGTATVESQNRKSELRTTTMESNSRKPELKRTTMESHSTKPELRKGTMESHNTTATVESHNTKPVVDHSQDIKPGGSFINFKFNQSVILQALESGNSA
Described as above. The settings on record: both partners purified.

B1: His-AS2 (… LEAVES 2) (natural protein)
chain: MASSSTNSPCAACKFLRRKCQPECVFAPYFPPDQPQKFANVHKVFGASNVTKLLNELHPSQREDAVNSLAYEADMRLRDPVYGCVGVISLLQHQLRQLQIDLSCAKSELSKYQSLGILAATHQSLGINLLAGAADGTATAVRDHYHHHQFFPREQMFGGLDVPAGNNYDGGILAIGQITQFQQPRAAAGDDGRRTVDPS
notes: full-length cDNA; The methods say the yeast SUMO tag was used to improve AS2 solubility; also called WT AS2
Regarding B1, in the assay with GST-AS2 (… LEAVES 2), the binding result is on record as “binds”.

As for B2, the binding result in the assay with DCP2, recombinant is reported as “binds”.

(Values after article PMC4592220, “Geminivirus Activates [sequence] LEAVES 2 to Accelerate Cytoplasmic DCP2-Mediated mRNA Turnover and Weakens RNA Silencing in Arabidopsis” (PLoS Pathogens, 2015).)
